In publication PMC9400901, “Advanced Insights into Catalytic and Structural Features of the Zinc‐Dependent Alcohol Dehydrogenase from Thauera aromatica” (Chembiochem, 2022):

Legend:
Type in all cases: biochemical, Thauera aromatica
purified protein [1] = substrate: NC(=O)c1ccc[n+]([C@@H]2O[C@H](COP(=O)(O)OP(=O)(O)OC[C@H]3O[C@@H](n4cnc5c(N)ncnc54)[C@H](O)[C@@H]3O)[C@@H](O)[C@H]2O)c1; test: purified protein; conditions: oxidation, co-substrate not given, standard assay pH 9.0, 40 °C, pH 9.0, varied: cofactor
purified protein [2] = substrate: CC1=CC(O)CCC1; test: purified protein; conditions: oxidation, standard assay: NAD+ 1 mmol L^−1, 100 mmol L^−1 HEPES pH 9.0, 40 °C, pH 9.0
purified protein [3] = substrate: NC(=O)C1=CN([C@@H]2O[C@H](COP(=O)(O)OP(=O)(O)OC[C@H]3O[C@@H](n4cnc5c(N)ncnc54)[C@H](O)[C@@H]3O)[C@@H](O)[C@H]2O)C=CC1; test: purified protein; conditions: reduction, co-substrate not given, standard assay pH 6.5, 40 °C, pH 6.5, varied: cofactor
purified protein [4] = substrate: NC(=O)c1ccc[n+]([C@@H]2C[C@H](COP(=O)(O)OP(=O)(O)OC[C@H]3O[C@@H](n4cnc5c(N)ncnc54)[C@H](O)[C@@H]3O)[C@@H](O)[C@H]2O)c1; test: purified protein; conditions: oxidation, co-substrate not given, standard assay pH 9.0, 40 °C, pH 9.0, varied: cofactor
[5] = substrate: O=C1CCCCC1Br; test: Michaelis-Menten kinetics, reduction; photometric standard assay or FDH-coupled biotransformation; conditions: NADH 0.25 mmol L^−1, potassium phosphate pH 6.5, room temperature, 3 % (v/v) DMSO, racemic substrate
Source text: (§1) Michaelis-Menten kinetics, reduction; photometric standard assay or FDH-coupled biotransformation on ThaADH

[6] = substrate: O=C1CCCCC1Cl; test: as above; conditions: NADH 0.25 mmol L^−1, potassium phosphate pH 6.5, room temperature, 1 % (v/v) DMSO, racemic substrate
Source text: as §1

[7] = substrate: O=C1CCCCC1=O; test: as above; conditions: NADH 0.25 mmol L^−1, 100 mmol L^−1 potassium phosphate pH 6.5, room temperature, solubility limit reached
Source text: as §1

B1: ThaADH (Thauera aromatica) (protein)
chain: MSSNPHRWMMTSPGAPMVRAEFEIGELSADQVVVAVAGCGVCHTDLGYYYDSVRTNHALPLALGHEISGRVVQAGANAAQWLGRAVIVPAVMPCGTCELCTSGHGTICRDQVMPGNDIQGGFASHVVVPARGLCPVDEARLAAAGLQLADVSVVADAVTTPYQAVLQAGVEPGDVAVVIGVGGVGGYAVQIANAFGASVVAIDVDPAKLEMMSKHGAALTLNAREISGRDLKKAIEAHAKANGLRLTRWKIFECSGTGAGQTSAYGLLTHGATLAVVGFTMDKVEVRLSNLMAFHARALGNWGCLPEYYPAALDLVLDKKIDLASFIERHPLDQIGEVFAAAHAHKLTRRAILTP
notes: full-length WT, recombinant in E. coli BL21(DE3), pET22b; C-terminal Strep-tag for all kinetics, N-terminal His-tag for crystals; about 40 kDa monomer, dimer in solution (89 kDa by SEC; tetramer and higher in blue native PAGE), two zinc per monomer
B1 gave a Km (purified protein [1]) of 1.0 ± 0.2 mM, a Vmax (purified protein [1]) of 2.2 µmol/min/mg and a kcat (purified protein [1]) of 1.63 ± 0.1 s⁻¹. For the same protein, the kcat/Km (purified protein [1]) was 1630 ± 430 M⁻¹ s⁻¹, the Km (purified protein [2]) was 21.6 ± 1.9 mM and the Vmax (purified protein [2]) was 2.4 µmol/min/mg. The kcat (purified protein [2]) was 1.77 ± 0.05 s⁻¹, the kcat/Km (purified protein [2]) was 80 ± 10 M⁻¹ s⁻¹ and the Km (purified protein [3]) was 0.07 ± 0.02 mM. For the same protein, the Vmax (purified protein [3]) was 9.1 µmol/min/mg, the kcat (purified protein [3]) was 6.63 ± 0.74 s⁻¹ and the kcat/Km (purified protein [3]) was 94700 ± 37600 M⁻¹ s⁻¹. For the same protein, the Km (purified protein [4]) was 0.7 ± 0.1 mM, the Vmax (purified protein [4]) was 0.9 µmol/min/mg and the kcat (purified protein [4]) was 0.66 ± 0.04 s⁻¹. It also gave a kcat/Km (purified protein [4]) of 940 ± 190 M⁻¹ s⁻¹, a Km [5] of 24.1 ± 6.8 mM and a Vmax [5] of 6.3 µmol/min/mg. It also gave a kcat [5] of 4.62 ± 0.47 s⁻¹, a kcat/Km [5] of 190 ± 70 M⁻¹ s⁻¹ and a Km [6] of 33.1 ± 10.4 mM. The Vmax [6] was 14.9 µmol/min/mg, the kcat [6] was 10.9 ± 1.38 s⁻¹ and the kcat/Km [6] was 330 ± 150 M⁻¹ s⁻¹. The Km [7] was 68.1 ± 33.8 mM, the Vmax [7] was 53.3 µmol/min/mg and the kcat [7] was 39.1 ± 10.1 s⁻¹. For the same protein, the kcat/Km [7] was 570 ± 430 M⁻¹ s⁻¹.
